B1: PSD2 (parent)
chain: PLMGETQERERVLTHFSRRYCQCN
B2: KCNAB2 (parent)
chain: IPPYSRASLKGYQWLKDKILSEEG

Variants of: B1
Experiment: protein stability index of a GFP-peptide fusion (GPS, HEK-293T) (PSI 1-6); higher = more stable
Details: c terminus: a fixed tail appended
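Also: lentivirally expressed fusions sorted by FACS into six bins by GFP to DsRed ratio, PSI derived from sequencing read proportions per bin multiplied by bin number.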

Protein stability index: each site, then its substitutions
L2: N 3.42 | A 3.59 | T 3.01 | K 2.57 | Y 1.9 | S 3.19 | V 3.35 | Q 3.35 | P 2.99 | F 2.41 | E 3.91 | I 3.17 | R 3.08 | D 3.37 | G 4.03 | W 2.58 | M 2.56 | C 3.52
G4: H 2.93 | Y 2.06 | S 2.92 | Q 2.43 | P 3.62 | F 2.31 | D 3.24 | I 2.76 | E 3.95 | L 2.02 | N 2.92 | K 2.6 | C 2.49 | T 3.86 | A 3.3 | W 2.07
M3: P 2.72 | A 3.72 | E 3.3 | R 2.44 | F 2.77 | T 4.68 | S 2.97 | K 3.13 | D 3.69 | H 3.22 | G 4 | L 3.15 | I 2.37 | W 2.79 | Y 2 | C 2.61
P1: N 2.97 | C 2.34 | H 2.6 | I 2.04 | F 2.48 | S 2.98 | Y 3.12 | L 1.67 | Q 2.81 | E 2.79 | K 2.25 | D 1.82 | T 2.58 | R 4.31 | V 2.4 | A 1.96 | W 2.3
E5: R 2.39 | Q 2.07 | K 2.2 | A 2.78 | W 1.86 | D 2.38 | I 2.64 | T 2.09 | P 2.94 | H 2.77 | L 2.08 | N 2.69 | M 1.87 | V 1.92 | S 2.66 | F 2.74 | C 1.32 | G 2.46

Variants of: B2
Experiment: as above
Details: c terminus: a fixed tail appended

Protein stability index, by site and new letter:
S21: T 2.31 | N 2.02 | A 2.8 | I 2.3 | V 1.67 | L 2.19 | C 2.42 | R 1.68 | K 3.24 | H 2.12 | Q 3.31 | D 3.56 | G 1.86 | Y 2.08 | F 2.28 | M 2.43 | W 3.22 | P 2.45
G24: I 1.81 | H 2.09 | E 3.1 | F 1.99 | D 3.48 | T 1.99 | N 2.05 | W 1.35 | C 2.06 | P 1.95 | K 2.61 | S 2.49 | M 2.56 | Y 1.48 | V 1.77 | L 1.43 | Q 3.79 | A 2.31 | R 1.47
E23: S 4.83 | D 1.51 | T 3.2 | P 1.6 | M 2.31 | I 2.62 | K 1.84 | A 3.77 | R 2.43 | Q 2.39 | N 2 | H 1.76 | V 2.5 | F 3.45 | Y 2.18
K10: Y 2.84 | S 3.34 | W 2.29 | T 3.38 | V 2.14
L15: Q 3.52 | A 3.71 | M 2.47 | V 2.91 | N 3.64 | T 3.08 | W 2.18 | S 3.53 | C 3.47 | P 3.61 | E 3.19 | I 2.11 | D 4.13 | K 3.22 | H 3.73 | G 3.2 | Y 2.19 | F 2.59 | R 2.37
G11: E 3.51 | R 2.66 | T 2.1 | S 1.64 | K 1.78 | W 3.38 | I 2.37 | M 2.08 | Q 2.96 | Y 2.91 | N 2.68 | A 1.8 | P 2.46 | H 2.19 | D 2.89 | F 3.33 | C 1.92
W14: S 2.95 | K 3.65 | M 3.66 | V 3.6 | R 3.73 | G 4.07 | Y 3.32 | H 3.57 | T 3.3 | F 4.47 | L 3.57 | I 3.45 | E 3.59 | A 3.76 | D 3.73 | N 3.78 | Q 3.04 | P 3.97
L20: G 2.19 | H 2.16 | Q 2.8 | M 2.47 | V 2 | W 2.54 | K 2.81 | N 3.06 | Y 2.51 | S 2.92 | D 3.91 | E 3.75 | T 3.54 | I 2.29 | C 2.63 | F 1.98 | A 3.71 | P 3.27
K18: I 1.71 | C 2.51 | R 1.02 | W 1.39 | E 2.95 | Y 2.05 | V 3.75 | D 2.77 | T 2.11 | N 3.29 | H 1.98 | A 2.63 | G 2.95 | L 1.6 | S 3.17 | P 2.83 | Q 3.23 | F 1.96 | M 2.78
I19: P 3.8 | A 2.57 | Q 2.12 | R 3.32 | S 3.16 | E 4 | T 3.4 | L 2.86 | H 2.98 | Y 2.58 | D 3.73 | V 3.17 | N 2.86 | F 2.21 | M 3.53
D17: Q 2.18 | K 2.04 | E 1.26 | W 1.72 | Y 1.8 | V 2.51 | H 2.69 | F 2.25 | T 1.68 | C 1.3 | R 1.91 | P 2.46 | I 1.69 | N 2.39 | A 2.65 | M 1.57 | G 2.03 | L 1.93 | S 1.6
Y12: F 2.84 | W 1.32 | R 3.44 | E 3.87 | V 2.71 | H 3.62 | P 3.17 | G 3.5 | Q 3.18 | K 4.35 | N 3.13 | T 3.81 | D 3.97 | I 2.45 | S 4.02 | A 3.34 | L 2.51 | C 3.04
E22: F 2.12 | G 1.68 | Q 2.47 | R 1.62 | H 1.45 | W 2.74 | N 2.26 | A 2.74 | T 1.97 | C 2.09 | S 2.08 | P 2.48 | D 2.68 | K 1.75 | V 1.22
Q13: Y 1.53 | K 1.74 | E 2.34 | H 2.46 | G 1.93 | N 2.32 | P 2.03 | A 1.82 | V 2.08 | L 1.16 | R 2.49 | S 2.95 | F 2.6 | D 3.63 | T 2.55 | C 1.84
K16: Q 2.31 | W 2.29 | L 1.02 | M 1.71 | S 2.38 | T 2.74 | A 1.82 | R 3.2 | V 2.08 | D 3.77 | N 3.29 | H 1.53 | C 3.16 | Y 1.84 | G 3.26 | E 2.19 | P 3.39 | I 2.49

From the supplement of paper PMC10567573
